T1: human W3785-hProl.ECD.His (Human-TNFR2-His) protein (human, UniProt P20333 23-257)
T1 construct: extracellular domain; not shown: His tag
T1 sequence (looked up): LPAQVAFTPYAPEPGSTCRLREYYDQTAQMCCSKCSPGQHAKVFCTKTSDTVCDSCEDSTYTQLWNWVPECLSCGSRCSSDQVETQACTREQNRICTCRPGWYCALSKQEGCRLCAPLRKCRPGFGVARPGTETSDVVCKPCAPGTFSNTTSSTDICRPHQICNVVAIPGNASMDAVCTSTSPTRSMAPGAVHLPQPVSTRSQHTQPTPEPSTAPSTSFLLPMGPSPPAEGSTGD


Tests used:
[1] = molecular target: T1, human W3785-hProl.ECD.His …; assay: BLI (Octet Red96e), antibody on AHC sensor, Human-TNFR2-His in solution, multiple concentrations
[2] = molecular target: T1, human W3785-hProl.ECD.His …; assay: indirect ELISA on coated Human-TNFR2-His
Protocol: (1) Coating: Human-TNFR2-His was diluted to 0.5 μg/mL with coating solution (1×PBS, pH 7.4), and coated into a 96-well ELISA plate at 100 μL/well at 4° C. overnight. The coating solution was poured off, and the plate was washed with 1×PBST at 300 μL per well, washed with a plate cleaning instrument for 4 times, and patted dry on sheet paper. [0184] (2) Blocking: it was blocked with 3% non-fat dry milk at 300 μL/well, and incubated at 37° C. for 1 h. The blocking solution was poured off, washed by a plate cleaning instrument for 4 times, and patted dry on sheet paper. [0185] (3) Sample dilution: the reference product and the test product were diluted with 3% non-fat dry milk to 10 μg/mL, and this was used as the initial concentration for 3-fold dilution with a total of 11 gradients of dilution, and another one blank well was set up, and only diluent was added. It was incubated at 100 μL/well at 37° C. for 1 h. Liquid in the wells was discarded, washed by a plate cleaning instrument for 4 times, and patted dry on the sheet paper. [0186] (4) Addition of enzyme-labeled secondary antibody: Peroxidase-conjugated AffiniPure F(ab′)2 Fragment Goat Anti-Human IgG was diluted with 3% non-fat dry milk at 1:20,000. It was incubated at 100 μL/well at 37° C. for 1 h. It was washed by a plate cleaning instrument for 6 times and patted dry on sheet paper. […] (5) Color development: TMB color development solution was added at 100 μL/well and wrapped with aluminium foil, and the color was developed at 37° C. without light for 8 min. [0188] (6) Termination of color development: terminal solution 1 M HCl was added to terminate the color development reaction at 100 μL/well. [0189] (7) Reading at 450 nm on the enzyme labeler. [0190]

Row | Kd [1] [nM] | koff [1] [s⁻¹] | kon [1] [M⁻¹ s⁻¹] | EC50 [2] [µg/mL] | Binder
1 | 0.177 | 0.000145 | 821000 | 0.0147 | Antibody 21 (antibody, V domains shown, detected with anti-human IgG and captured on AHC sensors) VH: EVQLVESGGGLVKPGGSLRLSCAASGFTFSNAWMGWVRQAPEKGLEWVGQIKDKSNNYPTYYAESVKGRFTISRDDSKNTLYLQMNSLKTEDTAVYYCTTYGDFFDYWGQGTLVTVSS VL: DIQMTQSPSSLSASVGDRVTITCRASEDIYNALAWYQQKPGKVPKLLLYNANSLHTGVPSRFSGSGSGTDYTLTISSLQPEDFATYFCQQYYDHPLTFGQGTKLEIK
2 | 0.33 | 0.000165 | 500000 | 0.0137 | Antibody 22 (antibody, V domains shown, detected with anti-human IgG and captured on AHC sensors) VH: EVQLVESGGGLVKPGGSLRLSCAASGFTFSNAWMGWVRQAPEKGLEWVGQIKDKSNNYPTYYAESVKGRFTISRDDSKNTLYLQMNSLKTEDTAVYYCTTYGDFFDYWGQGTLVTVSS VL: DIQMTQSPSSLSASVGDRVTITCRASEDIYQGLAWYQQKPGKVPKLLLYNANSLHTGVPSRFSGSGSGTDYTLTISSLQPEDFATYFCQQYYDHPLTFGQGTKLEIK
3 | 0.766 | 0.000371 | 484000 |  | Antibody 23 (antibody, V domains shown, captured on AHC sensors) VH: EVQLVQSGAEVKKPGATVKISCKVSGYSITDYLLHWVQQAPGKGLEWMGWIDPEEGKTKYGQKFQSRVTITADTSTDTAYMELSSLRSEDTAVYYCAANSGTGTMDAWGQGTLVTVSS VL: DIVMTQSPATLSVSPGERATLSCKASQNVGSNVDWYQQKPGQSPRVLIYKASIRYTGIPARFSGSGSGTEFTLTISILQSEDFAVYFCMQSKSYPITFGQGTKLEIK
4 | 1.39 | 0.00193 | 1.39e+06 |  | Antibody 25 (antibody, V domains shown, captured on AHC sensors) VH: EVQLVQSGAEVKKPGATVKISCKVSGYSITDYLLHWVQQAPGKGLEWMGWIDPEEGKTKYGQKFQSRVTITADTSTDTAYMELSSLRSEDTAVYYCAAQSGTGTMDAWGQGTLVTVSS VL: DIVMTQSPATLSVSPGERATLSCKASQNVGSNVDWYQQKPGQSPRVLIYKASIRYTGIPARFSGSGSGTEFTLTISILQSEDFAVYFCMQSKSYPITFGQGTKLEIK
5 | 0.537 | 0.00077 | 1.44e+06 |  | Antibody 27 (antibody, V domains shown, captured on AHC sensors) VH: EVQLVQSGAEVKKPGATVKISCKVSGYSITDYLLHWVQQAPGKGLEWMGWIDPEDAKTKYGQKFQSRVTITADTSTDTAYMELSSLRSEDTAVYYCAAQSGTGTMDAWGQGTLVTVSS VL: DIVMTQSPATLSVSPGERATLSCKASQNVGSNVDWYQQKPGQSPRVLIYKASIRYTGIPARFSGSGSGTEFTLTISILQSEDFAVYFCMQSKSYPITFGQGTKLEIK
6 | < 0.001 | < 1e-07 | 225000 |  | Antibody 28 (antibody, V domains shown, captured on AHC sensors) VH: EVQLVQSGAEVKKPGATVKISCKVSGYSITDYLLHWVQQAPGKGLEWMGWIDPEDAKTKYGQKFQSRVTITADTSTDTAYMELSSLRSEDTAVYYCAANSATGTMDAWGQGTLVTVSS VL: DIVMTQSPATLSVSPGERATLSCKASQNVGSNVDWYQQKPGQSPRVLIYKASIRYTGIPARFSGSGSGTEFTLTISILQSEDFAVYFCMQSKSYPITFGQGTKLEIK
7 | 0.0551 | 1.41e-05 | 256000 |  | Antibody 26 (antibody, V domains shown, captured on AHC sensors) VH: EVQLVQSGAEVKKPGATVKISCKVSGYSITDYLLHWVQQAPGKGLEWMGWIDPEEGKTKYGQKFQSRVTITADTSTDTAYMELSSLRSEDTAVYYCAANSATGTMDAWGQGTLVTVSS VL: DIVMTQSPATLSVSPGERATLSCKASQNVGSNVDWYQQKPGQSPRVLIYKASIRYTGIPARFSGSGSGTEFTLTISILQSEDFAVYFCMQSKSYPITFGQGTKLEIK
8 | 0.152 | 0.000109 | 718000 |  | Antibody 24 (antibody, V domains shown, captured on AHC sensors) VH: EVQLVQSGAEVKKPGATVKISCKVSGYSITDYLLHWVQQAPGKGLEWMGWIDPEDAKTKYGQKFQSRVTITADTSTDTAYMELSSLRSEDTAVYYCAANSGTGTMDAWGQGTLVTVSS VL: DIVMTQSPATLSVSPGERATLSCKASQNVGSNVDWYQQKPGQSPRVLIYKASIRYTGIPARFSGSGSGTEFTLTISILQSEDFAVYFCMQSKSYPITFGQGTKLEIK
9 | 0.0863 | 0.000102 | 1.21e+06 | 0.0135 | Antibody 12 (antibody, V domains shown, detected with anti-human IgG and captured on AHC sensors) VH: QVQLVQSGAEVKKPGASVKVSCKASGYTFTDYIIHWVRQAPGQGLEWMGWIDPDYGNTDYADKFKKRVTMTADTSISTAFMELSRLRSDDTAVYYCARDDGSPLVMDAWGQGTLVTVSS VL: DIQMTQSPSSLSASVGDRVTITCQGSQNIDNYLAWFQQKPGKAPKLLIYSTYSLQTGVPSRFSGSRSGTDFTLTISSLQPEDFATYFCFQYNNGYMFGGGTKLELK
10 | 0.133 | 0.000124 | 933000 | 0.0149 | Antibody 17 (antibody, V domains shown, detected with anti-human IgG and captured on AHC sensors) VH: QVQLVQSGAEVKKPGASVKVSCKASGYTFTDYIIHWVRQAPGQGLEWMGWIDPDYGNTDYADKFKKRVTMTADTSISTAFMELSRLRSDDTAVYYCARDEGSPLVMDAWGQGTLVTVSS VL: DIQMTQSPSSLSASVGDRVTITCQGSQNIDNYLAWFQQKPGKAPKLLIYSTYSLQTGVPSRFSGSRSGTDFTLTISSLQPEDFATYFCFQYNNGYMFGGGTKLELK
11 | 3.03 | 0.00282 | 931000 | 0.00375 | Antibody 14 (antibody, V domains shown, detected with anti-human IgG and captured on AHC sensors) VH: QVQLVQSGAEVKKPGASVKVSCKASGYTFTDYIIHWVRQAPGQGLEWMGWIDPDYGNTDYADKFKKRVTMTADTSISTAFMELSRLRSDDTAVYYCARDDASPLVMDAWGQGTLVTVSS VL: DIQMTQSPSSLSASVGDRVTITCNGSQNIDNYLAWFQQKPGKAPKLLIYSTYSLQTGVPSRFSGSRSGTDFTLTISSLQPEDFATYFCFQYNNGYMFGGGTKLELK
12 | 2.06 |  |  | 0.0032 | Antibody 15 (antibody, V domains shown, detected with anti-human IgG and captured on AHC sensors) VH: QVQLVQSGAEVKKPGASVKVSCKASGYTFTDYIIHWVRQAPGQGLEWMGWIDPDYGNTDYADKFKKRVTMTADTSISTAFMELSRLRSDDTAVYYCARDDASPLVMDAWGQGTLVTVSS VL: DIQMTQSPSSLSASVGDRVTITCQGSQNIDNYLAWFQQKPGKAPKLLIYSTYSLQTGVPSRFSGSRSGTDFTLTISSLQPEDFATYFCFQYNNGYMFGGGTKLELK
13 | 0.0638 | 6.22e-05 | 974000 |  | Antibody 18 (antibody, V domains shown, captured on AHC sensors) VH: QVQLVQSGAEVKKPGASVKVSCKASGYTFTDYIIHWVRQAPGQGLEWMGWIDPDYGNTDYADKFKKRVTMTADTSISTAFMELSRLRSDDTAVYYCARDDGSPLVMDAWGQGTLVTVSS VL: DIQMTQSPSSLSASVGDRVTITCQGSQNIDNYLAWFQQKPGKAPKLLIYSTYSLQTGVPSRFSGSRSGTDFTLTISSLQPEDFATYFCFQYNQGYMFGGGTKLELK
14 | 0.117 | 0.000134 | 1.15e+06 | 0.00496 | Antibody 13 (antibody, V domains shown, detected with anti-human IgG and captured on AHC sensors) VH: QVQLVQSGAEVKKPGASVKVSCKASGYTFTDYIIHWVRQAPGQGLEWMGWIDPDYGNTDYADKFKKRVTMTADTSISTAFMELSRLRSDDTAVYYCARDDGSPLVMDAWGQGTLVTVSS VL: DIQMTQSPSSLSASVGDRVTITCNGAQNIDNYLAWFQQKPGKAPKLLIYSTYSLQTGVPSRFSGSRSGTDFTLTISSLQPEDFATYFCFQYNNGYMFGGGTKLELK
15 | 1.48 | 0.00127 | 862000 |  | Antibody 19 (antibody, V domains shown, captured on AHC sensors) VH: QVQLVQSGAEVKKPGASVKVSCKASGYTFTDYIIHWVRQAPGQGLEWMGWIDPDYGNTDYADKFKKRVTMTADTSISTAFMELSRLRSDDTAVYYCARDDASPLVMDAWGQGTLVTVSS VL: DIQMTQSPSSLSASVGDRVTITCQGSQNIDNYLAWFQQKPGKAPKLLIYSTYSLQTGVPSRFSGSRSGTDFTLTISSLQPEDFATYFCFQYNQGYMFGGGTKLELK
16 | 0.117 | 0.000134 | 1.15e+06 | 0.0203 | Antibody 16 (antibody, V domains shown, detected with anti-human IgG and captured on AHC sensors) VH: QVQLVQSGAEVKKPGASVKVSCKASGYTFTDYIIHWVRQAPGQGLEWMGWIDPDYGNTDYADKFKKRVTMTADTSISTAFMELSRLRSDDTAVYYCARDEGSPLVMDAWGQGTLVTVSS VL: DIQMTQSPSSLSASVGDRVTITCNGSQNIDNYLAWFQQKPGKAPKLLIYSTYSLQTGVPSRFSGSRSGTDFTLTISSLQPEDFATYFCFQYNNGYMFGGGTKLELK
